From patent publication US10766960 (dated 2020) come the findings set out here.

As a reminder, the Kd is a measure of binding affinity in units of concentration. A higher Kd goes with a looser complex.

Holding throughout (assay): SPR
Assay [1] concerns the target FcgRIIIa V (human, UniProt P08637).
Assay [2] addresses T1, FcgRIIa H (human, UniProt P12318).
T1 chain: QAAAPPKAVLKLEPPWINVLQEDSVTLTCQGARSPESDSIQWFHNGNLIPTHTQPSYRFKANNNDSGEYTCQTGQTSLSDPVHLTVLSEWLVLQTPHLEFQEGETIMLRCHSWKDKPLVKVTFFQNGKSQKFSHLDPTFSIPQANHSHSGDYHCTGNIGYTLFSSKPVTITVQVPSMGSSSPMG

For assay [3], the target named is T2, FcgRIIb (human, UniProt P31994).
T2 chain: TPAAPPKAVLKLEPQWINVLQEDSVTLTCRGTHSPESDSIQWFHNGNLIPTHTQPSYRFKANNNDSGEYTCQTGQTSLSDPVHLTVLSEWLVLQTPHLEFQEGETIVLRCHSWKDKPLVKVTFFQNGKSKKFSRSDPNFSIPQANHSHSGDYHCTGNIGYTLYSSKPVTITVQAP

In assay [4] the target is T3, FcgRIIa R (human, UniProt P12318).
T3 chain: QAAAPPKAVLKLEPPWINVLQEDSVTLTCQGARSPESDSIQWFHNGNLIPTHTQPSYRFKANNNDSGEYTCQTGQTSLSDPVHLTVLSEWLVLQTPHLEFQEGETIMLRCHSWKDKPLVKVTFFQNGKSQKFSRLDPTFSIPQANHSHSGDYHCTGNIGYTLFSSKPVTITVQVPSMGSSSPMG

Assay [5] has as its target FcgRIIIa F (human, UniProt P08637).
Assay [6] deals with T4, FcgRIa (human, UniProt P12314).
T4 chain: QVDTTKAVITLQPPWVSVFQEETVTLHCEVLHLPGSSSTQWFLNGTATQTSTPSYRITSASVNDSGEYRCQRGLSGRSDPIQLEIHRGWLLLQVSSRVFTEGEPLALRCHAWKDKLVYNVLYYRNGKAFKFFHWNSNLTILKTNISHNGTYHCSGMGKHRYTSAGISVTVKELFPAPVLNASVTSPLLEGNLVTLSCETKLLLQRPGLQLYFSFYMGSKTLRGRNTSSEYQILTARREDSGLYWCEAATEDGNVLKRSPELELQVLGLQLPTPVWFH

FcgRIIIa V, sequence (P08637 17-208 F176V): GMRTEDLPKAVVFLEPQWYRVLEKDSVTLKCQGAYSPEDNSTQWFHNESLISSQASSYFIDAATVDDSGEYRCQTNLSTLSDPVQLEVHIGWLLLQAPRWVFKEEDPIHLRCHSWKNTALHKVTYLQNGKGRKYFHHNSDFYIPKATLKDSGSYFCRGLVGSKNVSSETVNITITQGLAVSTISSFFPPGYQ
FcgRIIIa F, sequence (P08637 17-208): as the sequence (P08637 17-208 F176V) above, with V160F counted along it

B1: H240-Kn120/H240-Hl073/L73-k0 (antibody)
chain 1: QDQLVQSGAEVKKPGASVKVSCKASGFNIKDTYIQWVRQAPGQGLEWMGRIDPLRKQTKYREKFEGRVTITADTSTNTAYMELSSLRSEDTAVYYCVRSGREFDYWGQGTLVTVSSASTKGPSVFPLAPSSKSTSGGTAALGCLVKDYFPEPVTVSWNSGALTSGVHTFPAVLQSSGLYSLSSVVTVPSSSLGTQTYICNVNHKPSNTKVDKKVEPKSCDKTHTCPPCPAPEYYWGPMVFLFPPKPKDTLMISRTPEVTCVVVDVSDEDPEVKFNWYVDGVEVHNAKTKPREEQYNATYRVVSVLTVLHQDWLNGKEYKCKVSNKDLPAPIEKTISKAKGQPREPQVCTLPPSRDELTKNQVSLWCLVKGFYPSDIAVEWESNGQPENNYKTTPPVLDSDGSFFLYSKLTVDKSRWQQGNVFSCSVMHEALHNHYTQKSLSLSP
chain 2: QDQLVQSGAEVKKPGASVKVSCKASGFNIKDTYIQWVRQAPGQGLEWMGRIDPLRKQTKYREKFEGRVTITADTSTNTAYMELSSLRSEDTAVYYCVRSGREFDYWGQGTLVTVSSASTKGPSVFPLAPSSKSTSGGTAALGCLVKDYFPEPVTVSWNSGALTSGVHTFPAVLQSSGLYSLSSVVTVPSSSLGTQTYICNVNHKPSNTKVDKKVEPKSCDKTHTCPPCPAPELLSGPSVFLFPPKPKDTLMISRTPEVTCVVVDVSHEEPEVKFNWYVDGVEVHNAKTKPREEQYNSTYRVVSVLTVLHQDWLNGKEYKCKVSNDALPKPIEETISKAKGQPREPQVYTLPPSRCELTKNQVSLSCAVKGFYPSDIAVEWESNGQPENNYKTTPPVLDSDGSFFLVSKLTVDKSRWQQGNVFSCSVMHEALHNHYTQKSLSLSP
chain 3: DIQMTQSPSSLSASVGDRVTITCRASQDIHKYIAWYQQKPGQAPRLLIQYTSTLQPGVPSRFSGSGSGTDYTFTISSLQPEDIATYYCLQYEQLRTFGGGTKVEIKRTVAAPSVFIFPPSDEQLKSGTASVVCLLNNFYPREAKVQWKVDNALQSGNSQESVTEQDSKDSTYSLSSTLTLSKADYEKHKVYACEVTHQGLSSPVTKSFNRGEC
For the molecule B1, the Kd in assay [1] is 1.8 nM; in assay [2] it was 21 nM; in assay [3] it was 210 nM; in assay [4] it was 15 nM; in assay [5] it was 8.2 nM; in assay [6] it was less than 0.028 nM.

B2: H240-Kn120/H240-Hl085/L73-k0 (antibody)
chain 1: QDQLVQSGAEVKKPGASVKVSCKASGFNIKDTYIQWVRQAPGQGLEWMGRIDPLRKQTKYREKFEGRVTITADTSTNTAYMELSSLRSEDTAVYYCVRSGREFDYWGQGTLVTVSSASTKGPSVFPLAPSSKSTSGGTAALGCLVKDYFPEPVTVSWNSGALTSGVHTFPAVLQSSGLYSLSSVVTVPSSSLGTQTYICNVNHKPSNTKVDKKVEPKSCDKTHTCPPCPAPEYYWGPMVFLFPPKPKDTLMISRTPEVTCVVVDVSDEDPEVKFNWYVDGVEVHNAKTKPREEQYNATYRVVSVLTVLHQDWLNGKEYKCKVSNKDLPAPIEKTISKAKGQPREPQVCTLPPSRDELTKNQVSLWCLVKGFYPSDIAVEWESNGQPENNYKTTPPVLDSDGSFFLYSKLTVDKSRWQQGNVFSCSVMHEALHNHYTQKSLSLSP
chain 2: QDQLVQSGAEVKKPGASVKVSCKASGFNIKDTYIQWVRQAPGQGLEWMGRIDPLRKQTKYREKFEGRVTITADTSTNTAYMELSSLRSEDTAVYYCVRSGREFDYWGQGTLVTVSSASTKGPSVFPLAPSSKSTSGGTAALGCLVKDYFPEPVTVSWNSGALTSGVHTFPAVLQSSGLYSLSSVVTVPSSSLGTQTYICNVNHKPSNTKVDKKVEPKSCDKTHTCPPCPAPELLVGPSVFLFPPKPKDTLMISRTPEVTCVVVDVSHEEPEVKFNWYVDGVEVHNAKTKPREEQYNSTYRVVSVLTVLHQDWLNGKEYKCKVSNDALPKPIEETISKAKGQPREPQVYTLPPSRCELTKNQVSLSCAVKGFYPSDIAVEWESNGQPENNYKTTPPVLDSDGSFFLVSKLTVDKSRWQQGNVFSCSVMHEALHNHYTQKSLSLSP
chain 3: DIQMTQSPSSLSASVGDRVTITCRASQDIHKYIAWYQQKPGQAPRLLIQYTSTLQPGVPSRFSGSGSGTDYTFTISSLQPEDIATYYCLQYEQLRTFGGGTKVEIKRTVAAPSVFIFPPSDEQLKSGTASVVCLLNNFYPREAKVQWKVDNALQSGNSQESVTEQDSKDSTYSLSSTLTLSKADYEKHKVYACEVTHQGLSSPVTKSFNRGEC
As to B2, the Kd was determined as 6.2 nM in assay [1]; 46 nM in assay [2]; 390 nM in assay [3]; 19 nM in assay [4]; 23 nM in assay [5]; 87 nM in assay [6].

B3: H240-Kn179/H240-Hl068/L73-k0 (antibody)
chain 1: QDQLVQSGAEVKKPGASVKVSCKASGFNIKDTYIQWVRQAPGQGLEWMGRIDPLRKQTKYREKFEGRVTITADTSTNTAYMELSSLRSEDTAVYYCVRSGREFDYWGQGTLVTVSSASTKGPSVFPLAPSSKSTSGGTAALGCLVKDYFPEPVTVSWNSGALTSGVHTFPAVLQSSGLYSLSSVVTVPSSSLGTQTYICNVNHKPSNTKVDKKVEPKSCDKTHTCPPCPAPEYYWGPMVFLFPPKPKDTLMISRTPEVTCVVVDVSDEDPEVKFNWYVDGVEVHNAKTKPREKQYNATYRVVSVLTVLHQDWLNGKEYKCKVSNKDLPAPIEKTISKAKGQPREPQVCTLPPSRDELTKNQVSLWCLVKGFYPSDIAVEWESNGQPENNYKTTPPVLDSDGSFFLYSKLTVDKSRWQQGNVFSCSVMHEALHNHYTQKSLSLSP
chain 2: QDQLVQSGAEVKKPGASVKVSCKASGFNIKDTYIQWVRQAPGQGLEWMGRIDPLRKQTKYREKFEGRVTITADTSTNTAYMELSSLRSEDTAVYYCVRSGREFDYWGQGTLVTVSSASTKGPSVFPLAPSSKSTSGGTAALGCLVKDYFPEPVTVSWNSGALTSGVHTFPAVLQSSGLYSLSSVVTVPSSSLGTQTYICNVNHKPSNTKVDKKVEPKSCDKTHTCPPCPAPELLGGPSVFLFPPKPKDTLMISRTPEVTCVVVDVSHEEPEVKFNWYVDGVEVHNAKTKPREEQYNSTYRVVSVLTVLHQDWLNGKEYKCKVSNDALPKPIEETISKAKGQPREPQVYTLPPSRCELTKNQVSLSCAVKGFYPSDIAVEWESNGQPENNYKTTPPVLDSDGSFFLVSKLTVDKSRWQQGNVFSCSVMHEALHNHYTQKSLSLSP
chain 3: DIQMTQSPSSLSASVGDRVTITCRASQDIHKYIAWYQQKPGQAPRLLIQYTSTLQPGVPSRFSGSGSGTDYTFTISSLQPEDIATYYCLQYEQLRTFGGGTKVEIKRTVAAPSVFIFPPSDEQLKSGTASVVCLLNNFYPREAKVQWKVDNALQSGNSQESVTEQDSKDSTYSLSSTLTLSKADYEKHKVYACEVTHQGLSSPVTKSFNRGEC
Take B3: the Kd in assay [1] was found to be 0.98 nM; in assay [2] it was 41 nM; in assay [3], 260 nM; in assay [4], 26 nM; in assay [5], 4.8 nM; in assay [6] it was 0.3 nM.
